Reference: the RNAGym collection of RNA variant scans (doi:10.1093/molbev/msab373)

B1: Azoarcus group I ribozyme (parent)
chain: GUGCCUUGCGCCGGGAAACCACGCAAGGGAUGGUGUCAAAUUCGGCGAAACCUAAGCGCCCGCCCGGGCGUAUGGCAACGCCGAGCCAAGCUUCGGCGCCUGCGCCGAUGAAGGUGUAGAGACUAGACGGCACCCACCUAAGGCAAACGCUAUGGUGAAGGCAUAGUCCAGGGAGUGGCGAAAGUCACACAAACCGG

Variants of: B1
Assay: reverse-splicing fitness (ratio to wild type); higher = more active; in vitro selection; Mg2+ level not given
How it was run: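 An in vitro group I ribozyme library with randomized positions was T7-transcribed and gel-purified. In triplicate, 10 pmol RNA in EPPS pH 7.5 was reacted with 50 pmoles of a 30-nt RNA substrate for 1 h at 37 °C across several added MgCl2 levels (1–48 mM), then stopped with EDTA. Products were reverse transcribed from a substrate-complementary primer, PCR-amplified and sequenced (HiSeq 4000). Fitness is a variant's read proportion after selection over that before, normalised to wild type.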

Row | Variant | reverse-splicing fitness
1 | C82U A111G A145C U176C | 0.242
2 | C82U A111G A145C U176A | 0.178
3 | C82U A111G A145C U176G | 0.0614
4 | C82U A111G A120U A145U C169U | 0.00467
5 | C82U A111G A120U A145U C169G | 0.00313
6 | C82U A111G A120U A145U C169A | 0.00249
7 | C82U A111G A120U A145G C150U C169U U176C | 0.00348
8 | C82U A111G A120U A145G C150U C169U U176A | 0.00391
9 | C82U A111G A120U A145G C150U C169U U176G | 0.00238
10 | C82U A111G A120U A145U C150G C169G U176A | 0.00235
11 | C82U A111G A120U A145U C150G C169G U176G | 0.00175
12 | C82U A111G A120U A145U C150G C169G U176C | 0.00239
13 | C82U A111G A120U A145G C150G | 0.00906
14 | C82U A111G A120U A145G C150U | 0.0339
15 | C82U A111G A120U A145G C150A | 0.01
16 | C82U A111G A120U A145G C169U U176C | 0.00362
17 | C82U A111G A120U A145G C169U U176A | 0.00337
18 | C82U A111G A120U A145G C169U U176G | 0.00171
19 | C82U A111G A120U A145G C150A C169A | 0.00559
20 | C82U A111G A120U A145G C150A C169G | 0.00549
21 | C82U A111G A120U A145G C150A C169U | 0.00348

Row | Variant | reverse-splicing fitness
22 | C82U A111G A120U A145C C169G U176G | 0.00126
23 | C82U A111G A120U A145C C169G U176A | 0.00218
24 | C82U A111G A120U A145C C169G U176C | 0.0021
25 | C82U A111G A120U C150U C169A | 0.00334
26 | C82U A111G A120U C150U C169U | 0.00388
27 | C82U A111G A120U C150U C169G | 0.00459
28 | C82U A111G A120U C169A U176C | 0.00211
29 | C82U A111G A120U C169A U176G | 0.00189
30 | C82U A111G A120U C169A U176A | 0.0024
31 | C82U A111G A145G C150G C169U U176A | 0.0101
32 | C82U A111G A145G C150G C169U U176G | 0.00654
33 | C82U A111G A145G C150G C169U U176C | 0.012
34 | C82U A111G A120U A145C C150U C169A U176A | 0.00277
35 | C82U A111G A120U A145C C150U C169A U176C | 0.0021
36 | C82U A111G A120U A145C C150U C169A U176G | 0.00196
37 | C82U A111G A120U A145U C150A C169U U176A | 0.00278
38 | C82U A111G A120U A145U C150A C169U U176G | 0.00158
39 | C82U A111G A120U A145U C150A C169U U176C | 0.00216
40 | C82U A111G A120U A145C C150G C169U U176C | 0.00213
41 | C82U A111G A120U A145C C150G C169U U176A | 0.00227
42 | C82U A111G A120U A145C C150G C169U U176G | 0.00181

Row | Variant | reverse-splicing fitness
43 | C82U A111G A120U A145G C169A U176G | 0.00159
44 | C82U A111G A120U A145G C169A U176C | 0.00292
45 | C82U A111G A120U A145G C169A U176A | 0.00258
46 | C82U A111G A120U C150G U176G | 0.00216
47 | C82U A111G A120U C150G U176C | 0.0053
48 | C82U A111G A120U C150G U176A | 0.00422
49 | C82U A111G A120U A145U C150G C169A U176G | 0.00207
50 | C82U A111G A120U A145U C150G C169A U176A | 0.00259
51 | C82U A111G A120U A145U C150G C169A U176C | 0.00216
52 | C82U A111G A145C C150A U176C | 0.0142
53 | C82U A111G A145C C150A U176G | 0.00788
54 | C82U A111G A145C C150A U176A | 0.0156
55 | C82U A111G A120U A145U C150U U176G | 0.00372
56 | C82U A111G A120U A145U C150U U176C | 0.013
57 | C82U A111G A120U A145U C150U U176A | 0.00763
58 | C82U A111G A120U C169A | 0.00275
59 | C82U A111G A120U C169U | 0.00493
60 | C82U A111G A120U C169G | 0.00416
61 | C82U A111G A120U U176C | 0.0192
62 | C82U A111G A120U U176A | 0.011
63 | C82U A111G A120U U176G | 0.00489

Row | Variant | reverse-splicing fitness
64 | C82U A111G A120U A145C C169U | 0.00379
65 | C82U A111G A120U A145C C169A | 0.00224
66 | C82U A111G A120U A145C C169G | 0.00247
67 | C82U A111G A120U A145G C150A C169G U176A | 0.0124
68 | C82U A111G A120U A145G C150A C169G U176G | 0.00221
69 | C82U A111G A120U A145G C150A C169G U176C | 0.00574
70 | C82U A111G A120U A145C C150G C169G | 0.00252
71 | C82U A111G A120U A145C C150G C169A | 0.00238
72 | C82U A111G A120U A145C C150G C169U | 0.00264
73 | C82U A111G A120U A145G C169G U176G | 0.00169
74 | C82U A111G A120U A145G C169G U176C | 0.00294
75 | C82U A111G A120U A145G C169G U176A | 0.00278
76 | C82U A111G A145C C150G C169U | 0.00804
77 | C82U A111G A145C C150G C169G | 0.00679
78 | C82U A111G A145C C150G C169A | 0.00744
79 | C82U A111G A145C C150U C169A U176C | 0.00548
80 | C82U A111G A145C C150U C169A U176A | 0.00923
81 | C82U A111G A145C C150U C169A U176G | 0.00526
82 | C82U A111G A120U A145U C150A U176C | 0.00416
83 | C82U A111G A120U A145U C150A U176A | 0.00427
